Patent US12617816B2 (priority 2019, dated 2026)
Where two headings read alike, the source gives them in different places.

Key:
MOR [1] = target: MOR (Homo sapiens, UniProt P35372)
in vivo = conditions: mouse, iv
human mu-opioid receptor [2] = target: T1, human mu-opioid receptor (Homo sapiens, UniProt P35372); format: cell-based
T1 construct: host or cells: CHO-K1

human mu-opioid receptor [3] = target: T1, human mu-opioid receptor; assay: cell-based; format: binding
MOR [4] = tested on: MOR; design: species or system mice; conditions: in vivo
[5] = mouse, in vivo
[6] = in vivo; cited from earlier work

T1 sequence (P35372 whole entry): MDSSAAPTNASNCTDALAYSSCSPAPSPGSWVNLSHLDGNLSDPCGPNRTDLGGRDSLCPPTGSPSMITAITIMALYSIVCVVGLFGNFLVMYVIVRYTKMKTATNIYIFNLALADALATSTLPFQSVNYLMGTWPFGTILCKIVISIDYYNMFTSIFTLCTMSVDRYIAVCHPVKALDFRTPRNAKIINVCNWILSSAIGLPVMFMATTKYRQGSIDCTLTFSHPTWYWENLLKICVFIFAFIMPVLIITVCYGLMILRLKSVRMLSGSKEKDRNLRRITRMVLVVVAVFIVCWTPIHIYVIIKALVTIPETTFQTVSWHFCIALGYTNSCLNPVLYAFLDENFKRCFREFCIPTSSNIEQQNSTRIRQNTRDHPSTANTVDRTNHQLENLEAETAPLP
Chain of MOR (Homo sapiens, UniProt P35372) (P35372 whole entry): as above

Structure (SMILES) | Binding potential (BP) (MOR [1]) | half-life (in vivo; distribution half-life (biexponential)) | half-life (in vivo; elimination (β) half-life (biexponential)) | half-life (in vivo; plasma half-life (time in which the concentration of dye is 50% of initial)) | displacement of retained DRM-800 by naloxone (human mu-opioid receptor [2]) | IC50 (human mu-opioid receptor [3]) | Ki (human mu-opioid receptor [3]) | ratio of enhancement, wildtype to knockout mouse (MOR [4]) | enhancement in wildtype compared to knockout mice (MOR [4]; mouse) | tolerability of intravenous injection [5] | distribution half-life (biexponential) ([5]; iv) | elimination (β) half-life (biexponential) ([5]; iv) | persistence in plasma ([5]; iv) | plasma half-life (time in which the concentration of dye is 50% of initial) ([5]; iv) | half-life [6]
C[C@@H](NC(=O)[C@@H](N)Cc1ccc(O)cc1)C(=O)N[C@@H](Cc1ccccc1)C(=O)NCC(=O)N[C@@H](Cc1ccc(O)cc1)C(=O)N1CCC[C@H]1C(=O)N[C@@H](CCCCN)C(=O)N[C@@H](CSC1CC(=O)N(CCNC(=O)CCCCC[N+]2=C(/C=C/C3=C(Oc4ccc(S(=O)(=O)O)cc4)C(=C/C=C4/N(CCCCS(=O)(=O)O)c5ccc(S(=O)(=O)O)cc5C4(C)C)/CCC3)C(C)(C)c3cc(S(=O)(=O)[O-])ccc32)C1=O)C(N)=O (stereo partly drawn) [DRM-800, [Lys7]dermorphin-IRDye800CW] | approximately 10 | 3.3 min | 70.8 min | 7.95 min | cannot be displaced even at high concentrations of naloxone | 3.5 nM | 0.64 nM | 3.1 × | higher enhancement in the wildtype mice compared to knockout mice | well-tolerated | 6.2 (4.9-8.6) min | 45 (33-68) min | at least one hour | 12.6 min | –
C=CCN1CC[C@]23c4c5ccc(O)c4O[C@H]2C(=O)CC[C@@]3(O)[C@H]1C5 [naloxone] | – | – | – | – | – | – | – | – | – | – | – | – | – | – | 60 to 80 min
